As a reminder, the koff is a measure of how fast the partners let go of each other. Usually kon stands for the second-order rate constant of association. By Kd is commonly meant the equilibrium constant for the complex coming apart.

Here are results for one molecule from patent EP1272205B1 (The Johns Hopkins University, dated 2013).

The target of experiment [1] is SAF-2 on cells (human eosinophils, basophils, cord blood-derived mast cells; HEK293 cells transfected with full length SAF-2) (human) (UniProt Q9NYZ4). As to the kind of experiment: indirect immunofluorescence flow cytometry on human basophils. A general note: In flow cytometry, cells or beads pass a laser one at a time.
Sequence of SAF-2 on cells (human eosinophils, basophils, cord blood-derived mast cells; HEK293 cells transfected with full length SAF-2) (human) (Q9NYZ4 17-499): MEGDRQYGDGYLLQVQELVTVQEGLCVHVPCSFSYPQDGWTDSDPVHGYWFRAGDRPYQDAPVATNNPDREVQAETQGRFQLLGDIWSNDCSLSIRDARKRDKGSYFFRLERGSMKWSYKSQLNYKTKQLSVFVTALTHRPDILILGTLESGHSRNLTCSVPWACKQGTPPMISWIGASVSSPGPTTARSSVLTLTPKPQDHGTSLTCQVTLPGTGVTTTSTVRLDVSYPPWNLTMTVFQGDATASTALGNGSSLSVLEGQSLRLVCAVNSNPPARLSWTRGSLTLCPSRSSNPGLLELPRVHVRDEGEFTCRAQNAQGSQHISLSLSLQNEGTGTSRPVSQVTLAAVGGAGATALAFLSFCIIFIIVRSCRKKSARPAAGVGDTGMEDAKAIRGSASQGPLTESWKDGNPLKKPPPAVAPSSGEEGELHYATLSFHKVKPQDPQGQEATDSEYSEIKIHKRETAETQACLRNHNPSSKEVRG
For experiment [2], the target named is T1, SAF-2 polypeptide (extracellular domain of sialoadhesin factor-2, released from SAF-2/Fc with Factor Xa) (human, UniProt Q9NYZ4 17-363).
T1 construct: extracellular domain; The BIAcore paragraph says only 'SAF-2 (diluted in HBS buffer)'; also called Siglec-8
T1 sequence (Q9NYZ4 17-363): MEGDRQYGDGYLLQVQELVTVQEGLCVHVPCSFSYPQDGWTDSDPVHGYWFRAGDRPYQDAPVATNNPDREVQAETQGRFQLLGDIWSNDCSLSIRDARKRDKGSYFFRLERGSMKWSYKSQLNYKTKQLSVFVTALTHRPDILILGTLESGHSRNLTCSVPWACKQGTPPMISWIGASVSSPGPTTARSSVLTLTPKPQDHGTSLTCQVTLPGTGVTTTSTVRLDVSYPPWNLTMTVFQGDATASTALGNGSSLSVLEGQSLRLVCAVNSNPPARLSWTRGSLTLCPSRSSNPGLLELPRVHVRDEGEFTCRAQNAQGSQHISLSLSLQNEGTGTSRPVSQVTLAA
Briefly: BIAcore SPR; mAb captured on rabbit anti-mouse IgG Fc surface, SAF-2 injected. (In general: In SPR one partner is held on a chip, and binding of the other changes the refractive index at the surface.)

The target in experiment [3] is T1, SAF-2 polypeptide (extracellular domain …). As to the kind of experiment: BIAcore SPR; mAb captured on rabbit anti-mouse IgG Fc surface, SAF-2 injected; calculated from rates.

B1: monoclonal antibody 2C4 (antibody, V domains shown)
VH: QVQLKESGPGLVAPSQSLSITCTVSGFSLIYGAHWVRQPPGKGLEWLGVIWAGGSTNYNSALMSRLSISKDNSKSQVFLKINSLQTDDTALYYCARDGSSPYYYSMEYWGQGTSVTVSS
VL: EIILTQSPAIMSASPGEKVSITCSATSSVSYMHWFQQKPGTSPKLWIYSTSNLASGVPVRFSGSGSGTSYSLTISRMEAEDAATYYCQQRSSYPFTFGSGTKLEIKR
notes: also called mAb 2C4
In the case of B1, in experiment [1], the percent positive (percent positive) came out at 21.1. Further, in experiment [2], the koff was 4.3e-05 s⁻¹ and the kon came out at 220000 M⁻¹ s⁻¹. Besides, in experiment [3], the dissociation constant (Kd) was 0.2 nM.
